Positions of bridges follow the written chain, without caps; N, C: chain ends. No end group written: not given here. *: point of attachment. NHNH2 = NN*
Experiments:
[1] = molecular target: T1, factor VIII-like polypeptide (REFACTO®) (Homo sapiens, UniProt P00451); experiment: Affinity chromatography capture and elution of REFACTO® on immobilized peptide columns; assay type: binding; conditions: bound material eluted in the presence of ethylene glycol
T1 construct: amino acids 1-743 and 1638 through 2332 of human factor VIII; purchased Genetics Institute, Inc. (Cambridge, Mass.)
T1 sequence (P00451 20-762): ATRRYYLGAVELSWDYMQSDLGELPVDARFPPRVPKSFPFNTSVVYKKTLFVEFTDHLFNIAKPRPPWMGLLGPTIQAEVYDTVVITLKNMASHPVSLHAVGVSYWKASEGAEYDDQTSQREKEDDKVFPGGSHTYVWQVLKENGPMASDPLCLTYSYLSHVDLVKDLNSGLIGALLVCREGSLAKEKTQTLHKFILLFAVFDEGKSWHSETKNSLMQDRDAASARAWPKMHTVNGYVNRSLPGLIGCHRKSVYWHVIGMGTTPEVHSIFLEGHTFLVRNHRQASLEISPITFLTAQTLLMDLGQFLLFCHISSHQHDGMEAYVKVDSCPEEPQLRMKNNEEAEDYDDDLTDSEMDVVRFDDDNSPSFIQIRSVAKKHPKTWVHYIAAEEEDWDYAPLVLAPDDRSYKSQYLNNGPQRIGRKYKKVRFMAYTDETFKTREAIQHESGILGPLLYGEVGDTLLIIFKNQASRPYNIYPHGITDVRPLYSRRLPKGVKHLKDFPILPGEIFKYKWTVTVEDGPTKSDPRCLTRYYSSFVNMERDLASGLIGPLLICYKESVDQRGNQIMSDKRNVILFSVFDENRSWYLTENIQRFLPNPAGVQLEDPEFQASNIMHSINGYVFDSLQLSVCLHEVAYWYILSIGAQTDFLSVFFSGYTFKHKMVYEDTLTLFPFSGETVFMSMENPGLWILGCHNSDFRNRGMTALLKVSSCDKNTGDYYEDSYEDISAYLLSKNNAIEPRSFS
T1 sequence (P00451 1657-2351): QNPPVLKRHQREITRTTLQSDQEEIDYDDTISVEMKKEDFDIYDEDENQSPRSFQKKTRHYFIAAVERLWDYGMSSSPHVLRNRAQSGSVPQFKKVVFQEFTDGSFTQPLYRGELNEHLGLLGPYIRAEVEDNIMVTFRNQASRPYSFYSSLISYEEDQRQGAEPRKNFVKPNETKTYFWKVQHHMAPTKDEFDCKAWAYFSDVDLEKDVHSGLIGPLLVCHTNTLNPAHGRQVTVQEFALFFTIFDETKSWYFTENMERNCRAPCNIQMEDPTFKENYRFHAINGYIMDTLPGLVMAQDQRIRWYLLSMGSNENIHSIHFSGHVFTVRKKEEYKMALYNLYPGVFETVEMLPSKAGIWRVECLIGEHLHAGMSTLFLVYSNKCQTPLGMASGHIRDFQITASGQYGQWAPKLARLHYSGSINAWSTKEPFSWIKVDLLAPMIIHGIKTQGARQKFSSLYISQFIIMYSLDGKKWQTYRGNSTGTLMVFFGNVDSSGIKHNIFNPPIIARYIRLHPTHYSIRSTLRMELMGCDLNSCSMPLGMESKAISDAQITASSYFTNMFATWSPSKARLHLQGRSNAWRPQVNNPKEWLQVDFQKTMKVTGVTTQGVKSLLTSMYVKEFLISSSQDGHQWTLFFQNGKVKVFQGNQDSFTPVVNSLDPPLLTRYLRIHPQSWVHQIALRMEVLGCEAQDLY
Description: The candidate ligands were immobilized onto a formyl-substituted ethylene glycol-methacrylate chromatographic resin (Toyopearl Formyl 650-M, pore size of ˜1000 Å; TosoHaas, Montgomeryville, Pa.). The hydrazide-containing peptides were immobilized by facilitating hydrazone bond formation, the GI-1 and -2 peptides were immobilized via reductive amination using NaCNBH3. The amount of polypeptide immobilized on the solid support was determined by quantifying the amount of free polypeptide remaining in solution. The amount of ligand immobilized per ml of resin was in the range of 0.7-1.5 μmol for the hydrazine-immobilized peptides.
The nine peptides were evaluated by affinity chromatography for their ability to capture the REFACTO® described in Example I, under specific binding and release conditions.
The factor VIII-like polypeptide (REFACTO®) was diluted in SP Buffer to a concentration of 150 μg/ml. The affinity resins (˜350 μl) were each packed into glass columns, and approximately 150 μg of the factor VIII target was applied to the prepared affinity columns at a flow rate of 200 μl/minute (linear velocity of 170 cm/hour). […] Fractions were collected and the mass and activity of recovered factor VIII-like polypeptide was determined by reversed-phase HPLC and by enzymatic assay.
For the mass determination, a standard curve with REFACTO® (0-200 μg) was generated and the amount present in each fraction was calculated according to techniques well known in the art. Reversed-phase HPLC in the presence of 20 mM EDTA was used to disrupt the REFACTO® molecule into its component subunits, which were eluted with a gradient of acetonitrile/0.01% TFA. The activity assay was a Factor IX-, X-based assay. The results for each affinity resin are set forth below (Table 6).

[2] = molecular target: T2, REFACTO® (Homo sapiens, UniProt P00451); experiment: Comparative batch binding and elution of REFACTO® with regenerated immobilized ligands; conditions: target REFACTO® 100 U/ml in modified Buffer 1
T2 construct: amino acids 1-743 and 1638 through 2332 of human factor VIII; purchased Genetics Institute, Inc. (Cambridge, Mass.)
T2 sequence (P00451 20-762): T1 sequence (P00451 20-762)
T2 sequence (P00451 1657-2351): T1 sequence (P00451 1657-2351)
From the text: A commercial ELISA kit (IMUBIND fVIII ELISA kit, Product #884, American, Inc., Greenwich, Conn.) developed to detect factor VIII was used according to the manufacturer's specifications in order to detect both the REFACTO® and the nhfVIII targets. The kit employs a sandwich ELISA assay in which the target is captured by an immobilized monoclonal antibody and the captured target is detected with a second monoclonal antibody-horseradish peroxidase (HRP) conjugate. Addition of the peroxidase substrate and its subsequent reaction with the HRP produces a blue color (detected at 630 nm) which changes to yellow (detected at 450 nm) on addition of the 0.5N sulfuric acid stop solution. Color response is calibrated with factor VIII standards provided by the manufacturer.
Following the pH 2 washes, the beads were washed once in PBS containing 0.05% azide and stored at 4° C.
A sample of nhfVIII was diluted to a final concentration of 100 U/ml by addition of 2.32 ml H2O, 180 μl 1M NH4OAc, pH 6.3 (to 72 mM), and 1 μl Tween 80 (to 0.04%). REFACTO® stock solution was diluted to 100 U/ml in a modified Buffer 1, in which the NaCl concentration was reduced from […] to 330 mM.
Immobilized peptides were tested for binding to nhFVIII in comparison with REFACTO®. […] Next, nhfVIII and REFACTO® solutions were mixed with regenerated affinity beads bearing the CS-454, CS-456, and CS-458 ligands in a comparative batch purification procedure.

| Substance | capture of the factor VIII target by the affinity resin (in words) [1] | % of Total Recovered in: Eluate [2] | % of Total Recovered in: Unbound [2] | % of Total Recovered in: Wash [2] |
| --- | --- | --- | --- | --- |
| AEGTGDHLCGAWFRPCDADPGPEGGGS-NHNH2 (disulfide 9-16 (inferred)) [CS-454] | captured virtually all of the factor VIII target applied |  |  |  |
| AEGTGDFCWVFAFDHCHDPGPEGGGS-NHNH2 (disulfide 8-16 (inferred)) [CS-458] |  | 27% | 59% | 14% |
| AEGTGDFGCSWLFPCPFDPGPEGGGS-NHNH2 (disulfide 9-15 (inferred)) [CS-456] | captured virtually all of the factor VIII target applied |  |  |  |
